In article PMC7734321, “Lesion Recognition and Cleavage of Damage-Containing Quadruplexes and Bulged Structures by DNA Glycosylases”:

Columns and labels:
[1] = biological target: NEIL1 (endonuclease VIII-like 1) (Homo sapiens, UniProt Q96FI4 2-390); test: MST; MST: 50 mM Tris-HCl pH 7.5, 50 mM KCl, 1 mM EDTA, 1 mM DTT, 7% glycerol, 25 C, 10 min, 0.5 uM DNA; authors call Kd values estimates only; conditions: protein: recombinant
Nei (endonuclease VIII) = biological target: T1, Nei (endonuclease VIII) (Escherichia coli, UniProt P50465 2-263); test: as above; conditions: protein: recombinant, tags: none (native form without tags)
T1 sequence: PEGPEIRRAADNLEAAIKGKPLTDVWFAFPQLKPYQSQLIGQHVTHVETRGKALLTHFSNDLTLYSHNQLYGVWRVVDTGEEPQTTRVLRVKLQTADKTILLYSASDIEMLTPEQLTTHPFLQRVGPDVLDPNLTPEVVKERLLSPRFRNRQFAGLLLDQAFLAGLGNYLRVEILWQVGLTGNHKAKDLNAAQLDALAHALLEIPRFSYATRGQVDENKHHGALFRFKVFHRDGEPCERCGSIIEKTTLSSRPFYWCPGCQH

NTH1 (endonuclease III) = biological target: T2, NTH1 (endonuclease III) (Homo sapiens, UniProt P78549 1-304); test: as above; conditions: protein: recombinant
T2 sequence: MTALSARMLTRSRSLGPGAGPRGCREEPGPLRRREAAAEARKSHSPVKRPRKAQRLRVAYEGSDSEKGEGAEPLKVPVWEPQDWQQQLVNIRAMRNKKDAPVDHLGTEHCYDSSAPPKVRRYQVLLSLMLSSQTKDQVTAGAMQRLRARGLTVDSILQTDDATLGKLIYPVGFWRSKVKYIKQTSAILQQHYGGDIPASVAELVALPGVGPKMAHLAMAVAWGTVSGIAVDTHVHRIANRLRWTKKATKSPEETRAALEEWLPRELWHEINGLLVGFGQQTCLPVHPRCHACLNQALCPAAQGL

[2] = biological target: T3, OGG1 (8-oxoguanine-DNA glycosylase) (Homo sapiens, UniProt O15527 1-345); test: as above; conditions: protein: recombinant
[3] = biological target: T4, Fpg (formamidopyrimidine-DNA glycosylase) (Escherichia coli, UniProt P05523 2-269); test: as above; conditions: protein: recombinant, tags: none (native form without tags)
T4 sequence: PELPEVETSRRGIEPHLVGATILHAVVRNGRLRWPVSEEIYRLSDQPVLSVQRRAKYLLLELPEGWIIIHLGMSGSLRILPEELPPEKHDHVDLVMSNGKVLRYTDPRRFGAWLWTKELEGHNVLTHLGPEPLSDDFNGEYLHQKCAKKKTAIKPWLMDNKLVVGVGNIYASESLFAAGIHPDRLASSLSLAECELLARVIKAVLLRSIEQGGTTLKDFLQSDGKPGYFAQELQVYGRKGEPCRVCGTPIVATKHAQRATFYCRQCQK

[4] = biological target: T3, OGG1 (8-oxoguanine-DNA glycosylase); test: stopped-flow FRET; DNA bending phase before cleavage; MST: 50 mM Tris-HCl pH 7.5, 50 mM KCl, 1 mM EDTA, 1 mM DTT, 7% glycerol, 25 C, 10 min, 0.5 uM DNA; authors call Kd values estimates only; conditions: protein: recombinant; label: 5'-FAM on strand 1; blunt
[5] = biological target: T4, Fpg (formamidopyrimidine-DNA …); test: as above; conditions: protein: recombinant; tags: none (native form without tags); label: 5'-FAM on strand 1; blunt
[6] = label: 5'-FAM, 3'-BHQ1, G-quadruplex
[7] = label: 5'-FAM on strand 2, blunt

T3 sequence (O15527 whole entry): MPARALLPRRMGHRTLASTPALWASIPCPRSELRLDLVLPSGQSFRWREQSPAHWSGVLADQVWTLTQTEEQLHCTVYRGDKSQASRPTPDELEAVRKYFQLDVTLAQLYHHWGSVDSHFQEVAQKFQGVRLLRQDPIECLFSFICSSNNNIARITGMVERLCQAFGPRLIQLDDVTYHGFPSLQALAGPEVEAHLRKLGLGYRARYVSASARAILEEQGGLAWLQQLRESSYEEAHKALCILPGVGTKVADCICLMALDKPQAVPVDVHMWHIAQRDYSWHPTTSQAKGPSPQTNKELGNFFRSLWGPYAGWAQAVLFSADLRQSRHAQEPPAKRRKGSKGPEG
Chain of NEIL1 (endonuclease VIII-like 1) (Q96FI4 2-390): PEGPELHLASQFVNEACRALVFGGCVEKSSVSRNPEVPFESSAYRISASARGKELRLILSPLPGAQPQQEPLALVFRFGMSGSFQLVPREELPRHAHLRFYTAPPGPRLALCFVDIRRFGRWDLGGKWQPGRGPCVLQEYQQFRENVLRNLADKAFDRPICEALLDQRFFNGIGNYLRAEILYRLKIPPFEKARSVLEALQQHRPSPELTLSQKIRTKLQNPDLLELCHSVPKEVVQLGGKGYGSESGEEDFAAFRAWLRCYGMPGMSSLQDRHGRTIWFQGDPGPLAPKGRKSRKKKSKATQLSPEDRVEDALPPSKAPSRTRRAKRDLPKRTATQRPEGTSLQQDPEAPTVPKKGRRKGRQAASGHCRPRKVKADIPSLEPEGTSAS

Question: Which results are given for TTAGGGTTAGGGTTAGGGTTAGGGTT (structured_DNA, T14 = thymine glycol) [Q4-Tg]?
Answer: Kd [1, 6]: 9.1 ± 3 µM; Kd (Nei (endonuclease VIII); [6]): 0.8 ± 0.2 µM; Kd (NTH1 (endonuclease III); [6]): 1.3 ± 0.3 µM

Question: TTAGGGTTAGGGTTAGGGTTAGGGTT (structured_DNA, G17 = 8-oxoguanine) [Q4-oxoG] was tested. Which Kd [2, 6] did it give?
Answer: Its Kd is 1.2 ± 0.3 µM.

Question: And the Kd [3, 6]?
Answer: The Kd was 1.2 ± 0.4 µM.

Question: What does the source list for TTAGGGTTAGGGTTAGGGTTAGGGTT (structured_DNA) [Q4]?
Answer: Kd ([2]; G-quadruplex): 0.7 ± 0.2 µM; Kd ([1]; G-quadruplex): 3.4 ± 0.5 µM; Kd ([3]; G-quadruplex): 1 ± 0.3 µM; Kd (Nei (endonuclease VIII); G-quadruplex): 0.9 ± 0.2 µM; Kd (NTH1 (endonuclease III); G-quadruplex): 2.5 ± 0.8 µM

B1: C/G (dsDNA)
DNA 1: GCTCACGTACAGAGCTG
DNA 2: CAGCTCTGTACGTGAGC
Question: B1 was tested. Which Kd [2, 7] did it give?
Answer: Its Kd is 1.4 ± 0.5 µM.

Question: What about the Kd [1, 7] of the same binder?
Answer: The Kd was 17 ± 15 µM.

Question: And the Kd [3, 7]?
Answer: The Kd was 1.6 ± 1.1 µM.

Question: What about the Kd (Nei (endonuclease VIII); [7]) of the same binder?
Answer: The Kd was 3.1 ± 0.7 µM.

Question: And the Kd (NTH1 (endonuclease III); [7])?
Answer: The Kd was 0.7 ± 0.4 µM.

B2: Type I oxoG/C (dsDNA)
DNA 1: GCTCAGGTACAGAGCTG
DNA 2: CAGCTCTGTACCTGAGC
modifications: G6 of strand 1 = 8-oxoguanine, opposite C
Question: Does B2 bind [4]?
Answer: Result: binds

Question: Does B2 bind [5]?
Answer: Result: binds
